This is an account of results in US20250109199A1.

Experiment [1] deals with EEEV virus-like particles (VLPs), strain PE-6 (Eastern equine encephalitis virus, strain PE-6).
Experiment [2] addresses EEEV virus-like particles (VLPs), strain FL93-939, wild type (Eastern equine encephalitis virus, strain FL93-939).

In experiment [1], “monovalent VLDLR LA(1-2) (from UniProt P98155 31-110) (receptor)” came in with a Kd of 1000 nM and a fold higher affinity than LA(2-3) of 10 fold.

In experiment [1], “monovalent VLDLR LA(1-3) (from UniProt P98155 31-151) (receptor)” had a dissociation constant Kd of 33.8 nM.

In turn, “monovalent VLDLR LA(1-4) (from UniProt P98155 28-190) (receptor)” returned a Kd in experiment [1] of 37 nM. On the same count and under the same terms, for “monovalent VLDLR LA(1-5) (from UniProt P98155 28-231) (receptor)” the value was 14.5 nM.

Regarding “monovalent VLDLR LA(1-6) (from UniProt P98155 28-275) (receptor)”, the results for the dissociation constant Kd in experiment [1] and in experiment [2] were 15 nM and 50 nM, respectively. As to “monovalent VLDLR LA(2-3) (from UniProt P98155 70-151) (receptor)”, the dissociation constant (Kd) in experiment [1] was 14000 nM.
